# Assay: soluble on expression in E. coli; label from the status in PepcDB or PDB records
row,Sequence,soluble on expression in E. coli
1,MSQTIGRIEEISFYSASLQDDVTLLVYLPVNYTPLHKHTVVIAQDGRDYFQLGKAHRVIERLRETEEIDRTIIVGIPYKNVHDRKEKYFPNEVKNAAYIRFLAHELAPYIDENYPTYQMGKGRVLIGDSLGGTVSFMTALMYPHTFGKVVMQSPFVDETVMNLAKEFKDPQALELYHVIGTEETAVKRTDGQVSDFVGPNRELNTLLTDRNFITHYEEFEGNHTWKYWQTDLPKAFSHILSMK,not soluble
2,GPGSMRGVYPYLFAEDMRSRGAGEPAKKEVKKNKFVATINWELFTRVERMDVVFSPRPKGVTTGNEGDIADGCETGAPAVWSFVPVGVPHGENYRANAFLVPMHDKSESPRLLLYVSDISELEDRFFTDLARSKVLLGVDPAVPIEVLVLDMLSRRPYVAHLHVEASIAAAKRINAAKTYYVGMSHRINYDEMMQELQQLGLGATMEMGYDGCVVSVGDSGLQHLSGRL,not soluble
3,MENVNRNHKNSVFSSLFSTPDVLRELYSAIEGIPIPPDIPIDINTLTDILYKGQINDVSFVINNRLVVLIEHQSTINANIPLRLLMYIARVYEKIINRKKLYQSKLEKIPLPEFIVLYNGEKEYSDFQELKLSDAFKDIDGLKLSGIEKIPLELIVQVYNINHGHNPEILKRSETLDSYSIFINKIREYQKEKDSLEKAARSAIIYCIKNNILKDYLEAHASEVLNMLLTEWNQDEAVEVAREEGREEGREEGHENGLKEGKMIIAKNLLEKGSTPEFVREITGLSPEEIEEIELND,soluble
4,MGSDKIHHHHHHMAQRSILVGQIWHEGHSFNPILTREKDFLFLRGEAVLEEARASSTALSGIVKTAEALGYRCVPSISARARPGGAIEQKVFDNIVDEFVQAARMQDFDAICLDLHGATLAEHTLDTEGYLLSRLREVVGNDIMISLALDLHAYLTPQMVEQATIITSFRTTPHADIEETGVRAMTLLDSLSNETRPPRAIYSLIPFLTRGNDETWSGPLAEIGAAADRWRARSDVVDLSIFNVHPFLDVPGYGQVVLAYDNGSGAAIDACRDLSDMLWKARDEFQEQLMSVDKALEIARTSRQLLALGDQGDRVMGAGPGDSPEIARVALEHFPGLKVAVPVYDPQAVRTAREAGENATVRMAVGGAFTHSVAPLERDWTVRKLCRARFTNIGPYMAGTEADFGDAAVLTCDAVTVIVTTMAPNVHDPAFYEAVGVPLASQQAVVARAANHYKLSFADIARTITVDTPGLTAFKPHQFPFTQARPFYPLDIVQWSFAPLECNKVG,not soluble
5,MSLKYIVVTGGVMSGLGKGITAASIGRLFVDMGYRVIPIKIDPYINIDAGTMNPFQHGEVYVLKDGTEVDLDLGHYERFIGEEVTGDHNITTGKIYKRVIEKERKGDYLGQTVQIIPHVTDEIKSWIRRVAKESNAEICLVEIGGTVGDIEGMPFLEAIRQMHNEEKEEDFALVHVTLVPLDAGGEQKTKPTQHSVKELRELGLHPDVIVGRCSERLKPATKKKIALFCDVPEEAVISNEDAEDIYEVPLIFKREKLDEYLMRKLNLRAKESRKEWEEMVKRMKTLYEEASIAIVGKYVDVRDAYLSIKEALKHGGIEAGCKVNIVWVDSEDLENVDDFTLDVDGILVPGGFGARGAEGKIRAIEYARENGVPFLGICFGFQLAVIEFARNVVGFSEANSTELDENTPHPVIDLLPEQKGIDEMGGTMRLGDIEVTIKPGTIAHKLYGSEKVVERHRHRYEVNPEYIEKIESKGLVFSAYSDGGRRMEIAELPDHPFFFATQFHPEFKSRPYRPSPPFVGFVRAALKYRREEEIEGHHHHHH,soluble
6,MEKTITIYTDGAASGNPGKGGWGALLMYGSSRKEISGYDPATTNNRMELMAAIKGLEALKEPARVQLYSDSAYLVNAMNEGWLKRWVKNGWKTAAKKPVENIDLWQEILKLTTLHRVTFHKVKGHSDNPYNSRADELARLAIKENS,soluble
7,MPKNDLLLRSLRGEPIGRFPVWLMRQAGRYMPEYRKIRNRVKNFLELCKNVDLATEISLLPLKILGVDAIIIFSDILVPLEPLGVKVEFVEGEGPKLSWSGKVSDLKKYDPSQNAYVYEIIKRVKEAQDEVPVIGFAGAPFTLLSYLIEGGASKDFKSTKLFMWENPKEYKRLMDILTETVLAYLKEQIKAGADVVQIFDSWVNNLSLEDYGEYVYPYVNYLISELKDFSDTPVIYFFRGSSSFIDLAVDYRADALSVDWSVDIPELFKIYDKGFQGNLEPAVLYASEEVIEEKTLGLLRRIPVKTRYVFNLGHGLAPDMELEKVKYLVDLVKSFPLT,soluble
8,MGSDKIHHHHHHMSSHQLPFQRSDEEVQASSGDSLTIARKQEVVQLLKQISDRTLKNDIISLGMVRNLRIVDDYIYLRLYIGSHQHQLETEIQTVLSSLTWSKKTYIQLCTIPGVRTTLAVSSGKGGVGKSTTAVNLAAALQLAGAKVGLLDADVYGPNVPQMLGLGKSEVKVIDTPKGQRFVPLEAHGIKVMSVGLLAEADHPLAWRGPVLHKIITQFIHEVEWGELDYLLIDLPPGTGDAQITIVQESPICGVILVTTPQNVAISDVRRSVYMFRQVGVPVIEIIENMSYFIGNGGEKISIFGSGGGQKLVEELKAPLLGQIPIDPLICNGGDVGEPLMLVDPNSKASQVFVQIAGALNATFSGSM,not soluble
9,GPGSMLKRSVSAAARKAGADTLAAAPAAGQQPPSNPLLPYALRRAAACEMLYGGSRVQYLVQPPFTLHKIRSENLPPPSLYAERHDLGLEMQLPRDMHVYNSINMAIQRQVGGDSSTLDGEQQQLQGGHADGFDMGAFFTEQHHPERHHNSSLPYAKHDTNNVLAMRLFPVNVGVRARTEAIRIRTDDCLQRLRDADLCAKMRLPLEHPLPLSRRSQYAAIHRVRQERCYDAPTEAAGERAAAAAEEASRTAHLRGAAAHPPPSELSIVTRPVDRLGSHSGSSAAACTADADHLSFPVHPFAAAAVSSGCHSARSGSAARLASQRWLPLQTLKPMGHNWSAATRSSGVRGPHMQLMQERLDQKGFGWKRKSRSLWQQDVATAGFRPHRYF,soluble
10,MKHKTKILHLKNGYDLWGASFGDPNSPIKILALHGGPGDDADEFIVWADQLKKFARIDAEVFVYEQLGSFHSESPDFSKKENVDNYLNYNYYINEVEEVRQLFDLDNFYLAGHSWGGILAYEYMLRSEYRQHLKAGIVFSMNDNIDDYVKQINKELLDMFGEQEFKYMKRIETSGDFSQKHYHQNLIELYKEHLNRDPNYNPDDGMKMMAEDVYHHFQGNNEFVVTGEMKNWNVSSRLPEFDIPVLETVGEFDTMSVESAKRSARKLPRGRFALTENGGHSHAQDHPKEFFEHLGSFIKDVKAGNV,not soluble
11,MGSDKIHHHHHHMLKKESIHFINKNRSLIVCEDNFVYLLPCIQLRNWISNFTISFPNQTIISDNYTIIPHGSVTLVFFYDATGLHSLLFGPTTKPKTVGNIANRCDVILIIEFQPAGFFPLIGIQQSELIDKVVPFSIINTSLDLEIKKIFNESLSIDKLILKLEELLISNIKIEYSYEFILAIQLIIQNSGNISSQEISKKVFYSSRHLNRLFNQYLGLSMKSFSRLVRINKSIKLLNNNKTSLMSICNELGFYDIPHFIKDFKIVCGITPQKYRANMSDFYSEIAKF,not soluble
12,MAQMKDNNVSNRATLVLYENRFIPLYRMIKEELIRFVQKKGIKSGMALPGDNELASQFGVSVGTVRRAIAELVSERIVIRQQGRGTFLAPYDTSRMLNSFWHIERRDGVVDVPLVSTHGFSQASATEEVAQKLALQPGDPVFVIKNSMTMQGTPVLLDTIYVPVRTFEGLTREKLSARDATIYDFYREQYGINIVKTIDRVSATVADKDTAKRLGCKLGAPMLRILRVAYSFGDTPIEYRCSLLDSENHEYVDVTGGDTSRYG,not soluble
13,MIMICPGCSCLCDDIYIKDGKVFNACRRGEEIFAKYNENRAVARVDGKEVDVDTAIEKAIEILKDAKNPAIYGLDTTVVEAQSLAIEVAEKLNGYIDDNSSFCLGELVEAVLKGEIPTTTLDEVRDNAYVLVYWGTNPYHSLSRHMSKYTYYPRGKRRPRGYDEDRYLVVVDVRKSETAKLAKKNAKFIQVESDAELVDSFMKVVDGKAAKYAKEAGAIITEMKKADFNVIFGGLGLKYGLKDLNMFKEMVKKLNEVAKVYFIPAGFHGNMRGFNETLFEKVGYVNKYSFRDGKSGEEFAFTELLKNEKIDAALIVGTDPVYSLPFDVSSKLGKVKTIVIDPRMSFTARIADVVIPSAISGIEAGGTMVRSDGVRVMLEPLEEKEVNDVYILQRIKEGL,not soluble
14,MKDDRYPSEWAQLALQKKQSVNWACERCGVQCLKPGEGKGLSTGDRYRLRMAVHHCDYDPGNNSPSNLKALCSPCHLYFHRRQRGNVIPGQLRLKFSFLILEHHHHHH,soluble
15,MKFFSAAAFVAALVASGNACIGGGAGGAGGCCPPAQPGCGNPCQGAGPQYAAAPPPPPQYAAAPQGGAYPTAGK,not soluble
16,GMNQNKITAGGLEFLVRFAAPTDRLKINDLMIDTARWLKESGSTQWSDILHGFDVHNIEQRIELGEVALFETEAGALAGAMIIRKTPSDWDTDLWEDLAIDKAYYLHRIMVSRAFSGISLSKQMIYFAEKLGIEMSVPFIRLDCIESNETLNQMYVRYGFQFSGKKNGFYLYQKELSQK,soluble
17,MASWSHPQFEKGAETAVPNSSSVPGDPSSMTRKNVLLIVVDQWRADFIPHLMRAEGREPFLKTPNLDRLCREGLTFRNHVTTCVPGGPARASLLTGLYLMNHRAVQNTVPLDQRHLNLGKALRAIGYDPALIGYTTTTPDPRTTSARDPRFTVLGDIMDGFRSVGAFEPNMEGYFGWVAQNGFELPENREDIWLPEGEHSVPGATDKPSRIPKEFSDSTFFTERALTYLKGRDGKPFFLHLGYYRPHPPFVASAPYHAMYKAEDMPAPIRAENPDAEAAQHPLMKHYIDHIRRGSFFHGAEGSGATLDEGEIRQMRATYCGLITEIDDCLGRVFAYLDETGQWDDTLIIFTSDHGEQLGDHHLLGKIGYNAESFRIPLVIKDAGQNRHAGQIEEGFSESIDVMPTILEWLGGETPRACDGRSLLPFLAEGKPSDWRTELHYEFDFRDVFYDQPQNSVQLSQDDCSLCVIEDENYKYVHFAALPPLFFDLKADPHEFSNLAGDPAYAALVRDYAQKALSWRLSHADRTLTHYRSSPQGLTTRNH,soluble
18,MFKSQTAILPEAGPFALYTLLKVRQNHAHVLQALKALPALVEEINQNQPGAELTVSVAFSKGFWSHFEMASPPELIDFPELGEGETHAPSTDVDVLIHCHATRHDLLFYTLRKGISDIAQDIEIVDETYGFRYLDARDMTGFIDGTENPKAEKRAEVALVADGDFAGGSYVMVQRFVHNLPAWNRLNLAAQEKVIGRTKPDSVELENVPAASHVGRVDIKEEGKGLKIVRHSLPYGSVSGDHGLLFIAYCHTLHNFKTMLESMYGVTDGKTDQLLRFTKAVTGAYFFAPSQVMLQELTLKNQ,not soluble
19,MGSDKIHHHHHHMQPYYWESAHGNFGDDLNLWLWDFLMPGFRDVHPETLLVGVGTVLNRALLPEGQHKLVIGSGFGYGSLPDMSRPEEWDIRSVRGPLTAKALGLPPEKGVIDPAVMLADMPEFQKLPKLYKKSFVPHWESAVAGVWASIVPKVGLTYIDPCGEAKAVIRQILQSEVIIAESMHGAIIADALRVPWVAVSTSASINSFKWNDWASTLGVTYKPLRVPLSSRAEAQIKGESFWGMSFKNHQPAPENPNDLAVDAAVLEQARGPKQTGLRTAVKQILAGPAMLNLWKASQAEPQLSRDSVLQERKARFLEVIEGVRRDYGIAAVS,not soluble
20,MSLGTPSEPTSTLESDIFDDLSLYYLEDVFLSATTPSPTFDLSDPSDPSLSDSFDSEWSPMTPCSIERPETSTSSIFSFEARPIKTPPPAEYLRLPTFLSTNNSGFFDSVVASDFNLYGKFNDWLNDSKPRSGSFAIESAEELARNPRETRSEPEVPSLFKRREYGCGYCRSVGYMRWETHTRKKCDKLSSLAPCKICGARGEMNHTETYCPMKPSSQLFFNEDFSRDFENRRFQRSRYQFYKHSSLIQKIYASSEDSF,not soluble
21,LEIPTSTVVKETLTQLSAHRALLTSNETLRLPVPTHKNHQLCIGEIFQGLDILKNQTVRGGTVERLFQNLSLIKKYIDRQKEKCGEERRRTRQFLDYLQEFLGVLSTEWAIEG,soluble
